As a reminder, the stoichiometry N is a count of units in the complex or per binding partner.

The series concerns the molecule itself. Put plainly: SEC; Superdex 200 10/300 GL on AKTA-FPLC, 20 mM phosphate buffer pH 7.5, 150 mM NaCl, 0.3 mL/min; calibrated with molecular weight markers; elution at 15.4 mL, about 50 kDa. In general terms: Size exclusion chromatography separates by hydrodynamic size, large species first.

B1: mu-class glutathione S-transferase from Fasciola gigantica (FgGST1) (enzyme)
chain: MPATLGYWKLRGLAQPIRLLLEFVGEKYEEQIYERDDGEKWFSKKFELGLDLPNLPYYIDDKCKLTQSLAILRYIADKHGMIGSTPEERARVSMIEGAAVDLRQGLSRISYDPKFEQLKEGYLKDLPTTMKMWSDFLGKNLYLRGTSVSHVDFMVYEALDAIRYLEPHCLDHFPNLQQFMSRIEALPSIKAYMESNRFIKWPLNGWHAQFGGGDAPPSHEKK
As to B1, the “stoichiometry N” value stood at 2.

Values taken from PMC5727538, “Comprehensive analysis of the catalytic and structural properties of a mu-class glutathione s-transferase from Fasciola gigantica” (Scientific Reports, 2017).
